No end group written: not given here. Alexa Fluor 488 C5‑maleimide = fluorescent dye linked to the Cys thiol through maleimide
How the values were obtained:
[1] = molecular target: T1, annexin 1 (Anxa1) expressed on mouse endothelial cells (F-2 cells; tumor vasculature in mice) (mouse, UniProt P10107 2-346); experiment: fluorescence microscopy of mouse endothelial F-2 cells cultured in vitro
T1 construct: whole, on cells; Endogenous protein on cells; also called Anxa1 expressed on the endothelial cell surface
T1 sequence (looked up): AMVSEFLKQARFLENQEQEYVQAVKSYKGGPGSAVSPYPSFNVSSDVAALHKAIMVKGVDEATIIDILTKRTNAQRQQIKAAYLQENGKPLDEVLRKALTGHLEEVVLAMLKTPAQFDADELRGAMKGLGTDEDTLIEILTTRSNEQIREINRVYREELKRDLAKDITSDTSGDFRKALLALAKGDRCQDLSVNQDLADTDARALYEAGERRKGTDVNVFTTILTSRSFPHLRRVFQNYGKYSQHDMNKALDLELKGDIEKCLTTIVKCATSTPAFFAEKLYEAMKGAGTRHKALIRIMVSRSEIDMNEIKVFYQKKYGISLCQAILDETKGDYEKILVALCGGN
Experimental: F-2 cells cultured on a filter of trans well insert was added with IF7C(RR)-conjugated FITC-poly-L-lysine to allow the reagent being bound to apical cell surface of F-2 cells. After washing the monolayer with medium, insert was placed in wells containing medium at 37° C. or at 4° C. Fluorescence moved to the lower chamber of insert was measured. C. Targeting and penetration of intravenously injected IF7C(RR)-conjugated FITC-poly-L-lysine in the B16 tumor in vivo in the mouse. Tissue section was immunostained for endothelial cell marker CD31.
Since IF7-SN38 is highly hydrophobic, there was a concern regarding a possibility that IF7-SN38 becomes insoluble after intravenous injection. Such may reduce the activity of IF7-SN38 in vivo. To increase the solubility of IF7-SN38 in aqueous environment, two arginine residues were added to IF7 after the cysteine residue. Thus IFLLWQR-C-RR (SEQ ID NO:17) or IF7C(RR) was synthesized. When IF7C(RR) was conjugated to FITC-poly-L-lysine, IF7C(RR)-conjugated FITC-poly-L-lysine bound to the surface of Anxa1-expressing mouse endothelial F-2 cells (FIG. 12A). […] When IF7C(RR)-conjugated FITC-poly-L-lysine was added to F-2 cells grown on a filter of the insert for trans well chamber, washed and then incubated in a medium at 37° C. or at 4° C., fluorescence migrated to the lower chamber from cells incubated at 37° C. but not at 4° C. […]

[2] = molecular target: T1, annexin 1 (Anxa1) expressed on mouse …; experiment: intravital fluorescence of LLC tumors in a dorsal skinfold chamber after intravenous injection; signal intensity over time
Experimental: The line with the lowest signal at 10 minutes represents RQ7-A488. Intensity of fluorescence was determined by Image J program. Error bars represent SD (n=3). Asterisks show statistical significance or p<0.0001, t test. (C) Fluorescence micrographs of tumor sections 20 min after injection with IF7-A488 and RQ7-A488. From left: IF7-A488, DAPI, merged, and bright field. IF7-A488 signals (upper row) were detected on endothelial cells of tumor vasculature (Scale bar=50 μm), while no RQ7-A488 signal was detected (lower row). Experiments were repeated 3 times, and representative results are shown. Arrows indicate fluorescence. (D) Fluorescence remained in circulation in mice with or without subcutaneous B16 tumors. IF7-A488 was injected intravenously through the tail vein, and fluorescence remaining in circulation was measured. […]
A Lewis lung carcinoma (LLC) tumor was produced in a donor nude mouse by subcutaneous injection, and small piece of tumor (less than 1 mm³) was transplanted to a dorsal skinfold chamber in a recipient nude mouse (8-10 weeks female Balb/c nude) as described (Lehr et al., Am J Pathol 1993; 143:1055-62; Oh et al., Nat Biotechnol 2007; 25:327-37). […] Signal intensity in the tumor from 0 min to 40 min was measured by Image J (NIH, Maryland). After 10 min, irradiation of specimens by a UV lamp was limited only to times when photos were taken to avoid fluorescence bleaching. […]

[3] = molecular target: T1, annexin 1 (Anxa1) expressed on mouse …; experiment: in vivo phage targeting in B16 tumor-bearing mice pre-injected with control rabbit IgG or anti-Anxa1 antibody; colonies recovered from tissue homogenates
Description: FIGS. 1A-1H show the essential role of annexin 1 (Anxa1) in tumor growth and identification of a peptide sequence with tumor vasculature targeting activity in vivo. A and B. Growth of B16 tumors subcutaneously injected into Anxa1(+/−) and Anxa1(−/−) mutant mice. C. Histology of B16 tumors produced in Anxa1(+/−) and Anxa1(−/−) mice. Each scale bar represents 2.00 mm. D. Immunohistochemistry of B16 tumors for CD31 showing endothelial cells and vasculature. Each scale bar represents 200 μm. E. In vivo phage targeting in B16 tumor-bearing mice. Numbers of transformed colonies recovered from the tumor or lung were determined. […] F. In vivo tumor and organ targeting activity of IFLLWQR (SEQ ID NO:2) displaying phage. Phage was injected into B16 tumor bearing mice pre-injected with anti-Anxa1 antibody or with control rabbit IgG. G. In vitro plate assay for binding of IF7-A488 (upper line) and control RQ7-A488C (lower line) to recombinant […] protein produced by bacteria. H. Effect of IF7 (upper line) and control RQ7 (lower line) on binding of FITC-labeled polyacrylamide-LeA oligosaccharide to Anxa1-His₆ protein.
Mouse melanoma B16F1 cells (2×10⁵ cells/100 μl PBS) were injected subcutaneously into the dorsal flank of C57BL/6 female mice (8-10 weeks old). […] Colonies appearing on an agar plate after culturing at 37° C. for 20 hours were counted.

[4] = molecular target: T1, annexin 1 (Anxa1) expressed on mouse …; experiment: intravital fluorescence of LLC tumors in a dorsal skinfold chamber after intravenous injection; signal intensity over time, with or without pre-injected rabbit IgG or anti-Anxa1 antibody
Experimental: (A) Lewis lung carcinoma (LLC) tumors were allowed to vascularize for 3 days in dorsal skinfold chamber window in nude mice. Mice were injected with 100 μl of 50 μM IF7-A488 (row a) or RQ7-A488 (row b) in 5% glucose in water. IF7-A488 was also injected to tumor-bearing mice pre-injected with rabbit IgG (row c) or with rabbit anti-Anxa1 antibody (row d). Fluorescence signals were monitored under a fluorescence microscope up to 40 min post-injection. From left: bright field before injection, and fluorescence at 0, 5, 20 min after injection. Far right, the boundary of tumor and stroma at 20 min (Scale bar=500 μm). (B) Quantitative analysis of fluorescence during the course of the analysis shown in A. The line with the highest signal at 10 minutes represents IF&-A488. The line with the second highest signal at 10 minutes represents the control IgG. […] Intensity of fluorescence was determined by Image J program. […] (C) Fluorescence micrographs of tumor sections 20 min after injection with IF7-A488 and RQ7-A488. […] IF7-A488 signals (upper row) were detected on endothelial cells of tumor vasculature (Scale bar=50 μm), while no RQ7-A488 signal was detected (lower row). […] Arrows indicate fluorescence. (D) Fluorescence remained in circulation in mice with or without subcutaneous B16 tumors. IF7-A488 was injected intravenously through the tail vein, and fluorescence remaining in circulation was measured. […]

[5] = molecular target: recombinant Anxa1-His6 protein; experiment: isothermal titration calorimetry, peptide injected into Anxa1-His protein, 23° C.; average over two Anxa1-His preparations

B1: IF7C(RR)-conjugated FITC-poly-L-lysine (peptide, not shown: large carriers)
peptide: IFLLWQRCRR
modifications: also: conjugated to FITC-poly-L-lysine, site and chemistry not given here
notes: Polymer conjugate; also called IF7C(RR)-conjugated FITC-polylysine; IF7C(RR)-conjugated FITC-poly-lysine
binding result [1]: binds

RQWLLFI (also: Alexa 488 conjugated, site of attachment not given here, also called RQ7-A488C; control RQ7-A488) [RQ7-A488 (Alexa 488 conjugated with RQWLLFI or reverse IF7)]
binding result [2]: no binding

IFLLWQR (peptide, not shown: large carriers, also called IF7 phage; clone #2) [IFLLWQR (SEQ ID NO:2) displaying phage]
binding result [3]: binds

IFLLWQRC(Alexa Fluor 488 C5‑maleimide) (Synthetic peptide (GenScript)) [IF7-A488 (chemically synthesized IF7 conjugated with fluorescent Alexa 488)]
binding result [4]: binds

IFLLWQRKKKC [IF7K3C peptide (…)]
Kd [5]: 11 µM

— patent publication US20120251453A1 (SANFORD BURNHAM MEDICAL RESEARCH INSTITUTE, published 2012)
